Consider one molecule from publication PMC6048597 (Biochemistry, 2018).

Assay in all cases: ITC
(In ITC the heat of successive injections is recorded.)

One test addresses T1, hKDM5B PHD V346A (human, UniProt Q9UGL1 305-366, V346A).
T1 sequence (looked up): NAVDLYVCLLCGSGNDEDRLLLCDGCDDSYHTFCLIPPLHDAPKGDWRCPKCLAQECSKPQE

A further test has as its target T2, hAIRE PHD C310L (human, UniProt O43918 294-343, C310L).
T2 chain (looked up): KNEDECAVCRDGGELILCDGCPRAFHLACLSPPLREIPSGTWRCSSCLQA

Test [1] addresses T3, hBAZ2A PHD finger (residues 1673–1728), wild type (human, UniProt Q9UIF9 1673-1728).
T3 sequence (looked up): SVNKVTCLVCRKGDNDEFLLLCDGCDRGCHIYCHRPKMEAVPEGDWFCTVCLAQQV

B1: Histone H3 residues 1–11 (H3-1-11W) (peptide)
peptide: ARTKQTARKSTW
For the molecule B1, the binding result (with hKDM5B PHD V346A; in test [1]) was “binds” each time. For the same molecule, the “fold increase in affinity against the wild type AIRE PHD” value in the test with hAIRE PHD C310L was approximately 15 fold.
